Assay [1] addresses CK2-phosphorylated XRCC4(1-238)-LigIV(654-911) complex (UniProt Q13426). Nature of the assay: SEC-MALS. (In general: SEC sorts molecules by how far they enter the pores of the column.)
The target is the same in assay [2]. Nature of the assay: SAXS.

Drawing on paper PMC5449630, this text covers stoichiometry N (PNKP per pXRCC4 dimer-LigIV complex) for 1 substance.

Sequence of CK2-phosphorylated XRCC4(1-238)-LigIV(654-911) complex (Q13426 1-238, chain 1 of 2): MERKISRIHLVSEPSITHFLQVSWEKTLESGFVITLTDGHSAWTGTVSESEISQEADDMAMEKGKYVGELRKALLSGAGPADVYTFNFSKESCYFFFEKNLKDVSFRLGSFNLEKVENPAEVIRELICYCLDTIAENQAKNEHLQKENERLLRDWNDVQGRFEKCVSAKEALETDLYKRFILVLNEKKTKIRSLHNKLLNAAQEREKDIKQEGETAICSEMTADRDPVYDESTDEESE
Sequence of CK2-phosphorylated XRCC4(1-238)-LigIV(654-911) complex (P49917 654-911, chain 2 of 2, further chain): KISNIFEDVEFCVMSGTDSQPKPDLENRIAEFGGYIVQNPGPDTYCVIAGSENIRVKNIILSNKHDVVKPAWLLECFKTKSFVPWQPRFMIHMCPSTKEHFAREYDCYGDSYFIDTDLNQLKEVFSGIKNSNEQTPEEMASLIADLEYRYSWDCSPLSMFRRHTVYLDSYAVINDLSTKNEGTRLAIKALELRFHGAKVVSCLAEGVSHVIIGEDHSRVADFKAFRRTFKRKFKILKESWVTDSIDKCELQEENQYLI

Regarding “polynucleotide kinase/phosphatase (PNKP), full length, wild type (from UniProt Q96T60 1-521) (enzyme)”, the stoichiometry N (PNKP per pXRCC4 dimer-LigIV complex) in assay [1] and in assay [2] was 1 throughout.
